This series can be described thus: self-splicing fitness, log relative to wild type (ln ratio); higher = more splicing; Tetrahymena group I intron in knt gene, E. coli kanamycin selection, DiMSum; sequences stand for … in CUCUCU…GGAGGGAAAAGUUAUCAGGCAUGCACCUGGUAGCUAGUCUUUAAACCAAUAGAUUGCAUCGGUUUAAAAGGCAAGACCGUCAAAUUGCGGGAAAGGGGUCAACAGCCGUUCAGUACCAAGUCUCAGGGGAAACUUUGAGAUGGCCUUGCAAAGGGUAUGGUAAUAAGCUGACGGACAUGGUCCUAACCACGCAGCCAAGUCCUAAGUCAACAGAUCUUCUGUUGAUAUGGAUGCAGUUCACAGACUAAAUGUCGGUCGGGGAAGAUGUAUUCUUCUCAUAAGAUAUAGUCGGACCUCUCCUUAAUGGGAGCUAGCGGAUGAAGUGAUGCAACACUGGAGCCGCUGGGAACUAAUUUGUAUGCGAAAGUAUAUUGAUUAGUUUUGGAGUACUCGUGGUCG
A digest of the protocol:
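Six replicate transformations of E. coli BL21(DE3) with a pET-22b(+) library were grown overnight at 37°C or 30°C. The library randomised all eight P1ex-region intron nucleotides, the intron lying in the knt kanamycin-resistance gene, and plates were LB agar with or without 25 μg/mL kanamycin plus 100 μg/mL carbenicillin, 50 μM IPTG and 0.2% rhamnose. Pooled colonies were amplicon-sequenced on an Illumina HiSeq 2500, and fitness is the DiMSum error-weighted combination of wild-type-normalised replicate fold changes, kanamycin versus none.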

± gives the uncertainty stated by the source.

Regarding AUUGAGCAAUAUUACGCGAG, the “self-splicing fitness (ln)” value by setting is: (30 °C) -1.83 ± 0.13; (37 °C) -0.958 ± 0.14.

Regarding GUUUAGCAAUAUUACGUGUG, the “self-splicing fitness (ln)” value (30 °C) is -2.08 ± 0.11 and the “self-splicing fitness (ln)” value (37 °C) was -1.36 ± 0.11.

Take AACCAGCAAUAUUACGUAUC: the “self-splicing fitness (ln)” value by setting is: (30 °C) -2.57 ± 0.097; (37 °C) -1.39 ± 0.1.

Consider CGGGAGCAAUAUUACGUGAU, for which, where the note is “37 °C”, the “self-splicing fitness (ln)” value was -0.773 ± 0.19.

For CCACAGCAAUAUUACGACCG, the “self-splicing fitness (ln)” value reads like this: (30 °C) -0.115 ± 0.064; (37 °C) -0.00245 ± 0.083.

Turning to GUUUAGCAAUAUUACGCUUC, the “self-splicing fitness (ln)” value (37 °C) was -1.36 ± 0.43.

In the case of AGUGAGCAAUAUUACGAUGG, the “self-splicing fitness (ln)” value was -3.11 ± 0.24 (30 °C) and -2.26 ± 0.25 (37 °C).

Regarding UACGAGCAAUAUUACGGACA, the “self-splicing fitness (ln)” value runs as follows: (30 °C) -3.34 ± 0.26; (37 °C) -1.72 ± 0.17.

Turning to GACAAGCAAUAUUACGCUUU, the “self-splicing fitness (ln)” value is, setting by setting: (30 °C) -3.43 ± 0.42; (37 °C) -2.11 ± 0.32.

As to CAAGAGCAAUAUUACGCAUC, the “self-splicing fitness (ln)” value (30 °C) is -3.5 ± 0.29 and the “self-splicing fitness (ln)” value (37 °C) was -0.397 ± 0.39.

For GUGGAGCAAUAUUACGAUGA, the “self-splicing fitness (ln)” value runs as follows: (30 °C) -1.37 ± 0.19; (37 °C) -1.39 ± 0.37.

AGUAAGCAAUAUUACGUAUA: the “self-splicing fitness (ln)” value reads like this: (30 °C) -2.38 ± 0.42; (37 °C) -1.97 ± 0.28.

Regarding CGGUAGCAAUAUUACGCAGC, the “self-splicing fitness (ln)” value is -2.14 ± 0.24 (30 °C) and -1.72 ± 0.31 (37 °C).

For the sequence CGACAGCAAUAUUACGAUUC, the “self-splicing fitness (ln)” value is, setting by setting: (30 °C) -3.6 ± 0.14; (37 °C) -0.756 ± 0.08.

As for ACUGAGCAAUAUUACGCGUU, the “self-splicing fitness (ln)” value is, setting by setting: (30 °C) -3.38 ± 0.17; (37 °C) -1.51 ± 0.13.

With CGCCAGCAAUAUUACGUUGC, the “self-splicing fitness (ln)” value (30 °C) is -3.95 ± 0.29 and the “self-splicing fitness (ln)” value (37 °C) was -2.45 ± 0.22.

Regarding CAUUAGCAAUAUUACGUUAG, the “self-splicing fitness (ln)” value by setting is: (30 °C) -0.927 ± 0.092; (37 °C) -0.609 ± 0.1.

For the sequence GGUCAGCAAUAUUACGCCCA, the “self-splicing fitness (ln)” value was -1.55 ± 0.21 (30 °C) and -0.611 ± 0.28 (37 °C).

GGCAAGCAAUAUUACGAAAU: the “self-splicing fitness (ln)” value is -0.0122 ± 0.15 (30 °C) and -0.727 ± 0.12 (37 °C).

For the sequence AUGCAGCAAUAUUACGCUGG, the “self-splicing fitness (ln)” value runs as follows: (30 °C) -2.5 ± 0.17; (37 °C) -2.68 ± 0.25.

On to CAAUAGCAAUAUUACGAUAA, for which the “self-splicing fitness (ln)” value is, setting by setting: (30 °C) -3.24 ± 0.48; (37 °C) -3.1 ± 0.33.

For CAUGAGCAAUAUUACGUUAG, the “self-splicing fitness (ln)” value by setting is: (30 °C) -1.86 ± 0.081; (37 °C) -1.11 ± 0.082.

Turning to GCUGAGCAAUAUUACGCAGU, the “self-splicing fitness (ln)” value was -4.98 ± 0.45 (30 °C) and -3.31 ± 0.34 (37 °C).

Regarding GUCGAGCAAUAUUACGGAUU, the “self-splicing fitness (ln)” value (30 °C) was -2.03 ± 0.26 and the “self-splicing fitness (ln)” value (37 °C) is -0.691 ± 0.21.

As to GUGAAGCAAUAUUACGAAUU, the “self-splicing fitness (ln)” value is -0.957 ± 0.18 (30 °C) and -0.439 ± 0.21 (37 °C).

Take UUUUAGCAAUAUUACGAAGU: the “self-splicing fitness (ln)” value runs as follows: (30 °C) -3.02 ± 0.35; (37 °C) -1.65 ± 0.46.

With AGGCAGCAAUAUUACGGAGU, the “self-splicing fitness (ln)” value by setting is: (30 °C) -3.02 ± 0.22; (37 °C) -2.09 ± 0.16.

Take GGGCAGCAAUAUUACGCCAA: the “self-splicing fitness (ln)” value runs as follows: (30 °C) -0.582 ± 0.19; (37 °C) -0.176 ± 0.24.

For the sequence UUCGAGCAAUAUUACGUACU, the “self-splicing fitness (ln)” value runs as follows: (30 °C) -2.87 ± 0.42; (37 °C) -2.01 ± 0.36.

Turning to CAAUAGCAAUAUUACGAAUG, the “self-splicing fitness (ln)” value (30 °C) was -1.11 ± 0.076 and the “self-splicing fitness (ln)” value (37 °C) is -0.357 ± 0.098.

As to AUAUAGCAAUAUUACGUGGG, the “self-splicing fitness (ln)” value was -3.53 ± 0.28 (30 °C) and -3.28 ± 0.33 (37 °C).

With CUUGAGCAAUAUUACGCAAG, the “self-splicing fitness (ln)” value (30 °C) was -2.37 ± 0.42.

UAACAGCAAUAUUACGCAAA: the “self-splicing fitness (ln)” value by setting is: (30 °C) -3.11 ± 0.19; (37 °C) -2.3 ± 0.12.

As for ACCGAGCAAUAUUACGGCAU, the “self-splicing fitness (ln)” value is, setting by setting: (30 °C) -1.09 ± 0.09; (37 °C) -0.529 ± 0.11.

Turning to AUGUAGCAAUAUUACGCAGG, the “self-splicing fitness (ln)” value reads like this: (30 °C) -2.06 ± 0.22; (37 °C) -1.7 ± 0.19.

For CUCCAGCAAUAUUACGGCUG, the “self-splicing fitness (ln)” value by setting is: (30 °C) -2.12 ± 0.22; (37 °C) -2.99 ± 0.4.

On to CGUUAGCAAUAUUACGACUA, for which the “self-splicing fitness (ln)” value was -1.12 ± 0.16 (30 °C) and 0.415 ± 0.14 (37 °C).

Turning to AUCGAGCAAUAUUACGUAAU, the “self-splicing fitness (ln)” value is -1.91 ± 0.12 (30 °C) and -1.25 ± 0.13 (37 °C).

As to UGGUAGCAAUAUUACGCGUA, the “self-splicing fitness (ln)” value was -1.26 ± 0.24 (30 °C) and -1.56 ± 0.27 (37 °C).

As for AACAAGCAAUAUUACGUGCG, the “self-splicing fitness (ln)” value (30 °C) was -1.17 ± 0.05 and the “self-splicing fitness (ln)” value (37 °C) is -0.476 ± 0.064.

For UGGCAGCAAUAUUACGCGAG, the “self-splicing fitness (ln)” value runs as follows: (30 °C) -1.96 ± 0.1; (37 °C) -0.954 ± 0.097.

Turning to AAGUAGCAAUAUUACGGUUU, the “self-splicing fitness (ln)” value reads like this: (30 °C) -0.353 ± 0.064; (37 °C) -0.458 ± 0.098.

In the case of UUAAAGCAAUAUUACGACCC, the “self-splicing fitness (ln)” value runs as follows: (30 °C) -0.686 ± 0.28; (37 °C) -0.355 ± 0.29.

CGUGAGCAAUAUUACGUCUG: the “self-splicing fitness (ln)” value is -0.656 ± 0.072 (30 °C) and 0.0039 ± 0.094 (37 °C).

As for ACAAAGCAAUAUUACGUUGU, the “self-splicing fitness (ln)” value reads like this: (30 °C) -3.68 ± 0.14; (37 °C) -2.18 ± 0.15.

For the sequence GGAGAGCAAUAUUACGAAUA, the “self-splicing fitness (ln)” value (30 °C) was -2.51 ± 0.26.

GCCCAGCAAUAUUACGUUUA: the “self-splicing fitness (ln)” value by setting is: (30 °C) -1.7 ± 0.079; (37 °C) -0.893 ± 0.078.

Take AUAGAGCAAUAUUACGACAC: the “self-splicing fitness (ln)” value (30 °C) was -0.57 ± 0.15 and the “self-splicing fitness (ln)” value (37 °C) was -0.0339 ± 0.2.

In the case of UCACAGCAAUAUUACGGACG, the “self-splicing fitness (ln)” value reads like this: (30 °C) -1.22 ± 0.073; (37 °C) -0.222 ± 0.091.

As for UAGAAGCAAUAUUACGGUCA, the “self-splicing fitness (ln)” value (30 °C) is -0.346 ± 0.095 and the “self-splicing fitness (ln)” value (37 °C) was -0.338 ± 0.11.

CCAUAGCAAUAUUACGUCCG: the “self-splicing fitness (ln)” value by setting is: (30 °C) -0.229 ± 0.077; (37 °C) 0.347 ± 0.13.

Regarding CAGCAGCAAUAUUACGUACG, the “self-splicing fitness (ln)” value by setting is: (30 °C) -0.121 ± 0.08; (37 °C) 0.866 ± 0.11.

Consider AUAAAGCAAUAUUACGGAGG, for which the “self-splicing fitness (ln)” value (30 °C) is -3.18 ± 0.18 and the “self-splicing fitness (ln)” value (37 °C) was -1.67 ± 0.24.

Turning to GAGUAGCAAUAUUACGAAGA, the “self-splicing fitness (ln)” value (30 °C) was -2.63 ± 0.3.

In the case of CUCAAGCAAUAUUACGCCCA, the “self-splicing fitness (ln)” value was -3.18 ± 0.4 (30 °C) and -2.01 ± 0.47 (37 °C).

The values above are taken from the supplement of paper PMC7877785.
